Reference: the Immune Epitope Database (IEDB)

Tests used:
[1] = molecular target: HLA-A*01:01; experiment: IEDB peptide-MHC binding, purified MHC/direct/fluorescence; filed as Kd, often an IC50 or EC50 that approximates it; ≥ and ≤ were set here for values at or beyond the usual limits of such assays
[2] = molecular target: HLA-A*02:01; experiment: as above
[3] = molecular target: HLA-A*03:01; experiment: as above
[4] = molecular target: HLA-A*11:01; experiment: as above
[5] = molecular target: HLA-A*26:01; experiment: as above
[6] = molecular target: HLA-A*31:01; experiment: as above
[7] = molecular target: HLA-A*69:01; experiment: as above
[8] = molecular target: HLA-B*07:02; experiment: as above
[9] = molecular target: HLA-B*08:02; experiment: as above; settings: source organism: Burkholderia mallei ATCC 23344
[10] = molecular target: HLA-B*15:01; experiment: as above
[11] = molecular target: HLA-B*15:17; experiment: as above
[12] = molecular target: HLA-B*18:01; experiment: as above; settings: source organism: Burkholderia mallei
[13] = molecular target: HLA-B*27:05; experiment: as above
[14] = molecular target: HLA-B*38:01; experiment: as above; settings: source organism: Burkholderia mallei ATCC 23344
[15] = molecular target: HLA-B*39:01; experiment: as above; settings: source organism: Burkholderia mallei ATCC 23344
[16] = molecular target: HLA-B*40:01; experiment: as above; settings: source organism: Burkholderia mallei
[17] = molecular target: HLA-B*46:01; experiment: as above
[18] = molecular target: HLA-B*48:01; experiment: as above
[19] = molecular target: HLA-B*51:01; experiment: as above; settings: source organism: Burkholderia mallei
[20] = molecular target: HLA-B*57:01; experiment: as above
[21] = molecular target: HLA-B*58:01; experiment: as above
[22] = molecular target: HLA-B*15:02; experiment: IEDB peptide-MHC binding, purified MHC/competitive/fluorescence; filed as Kd, often an IC50 or EC50 that approximates it; ≥ and ≤ were set here for values at or beyond the usual limits of such assays; settings: source organism: Homo sapiens
[23] = molecular target: HLA-B*46:01; experiment: as above; settings: source organism: Homo sapiens
[24] = molecular target: HLA-A*02:01; experiment: IEDB peptide-MHC binding, purified MHC/competitive/radioactivity; filed as Kd, often an IC50 or EC50 that approximates it; ≥ and ≤ were set here for values at or beyond the usual limits of such assays; settings: source organism: Homo sapiens
[25] = molecular target: HLA-A*02:07; experiment: as above; settings: source organism: Homo sapiens
[26] = molecular target: HLA-A*29:02; experiment: as above; settings: source organism: Homo sapiens
[27] = molecular target: HLA-B*57:01; experiment: as above; settings: source organism: Homo sapiens
[28] = molecular target: HLA-B*58:01; experiment: as above; settings: source organism: Homo sapiens
[29] = molecular target: HLA-B*58:01; experiment: IEDB peptide-MHC binding, cellular MHC/competitive/fluorescence; ≥ and ≤ were set here for values at or beyond the usual limits of such assays; settings: source organism: Human herpesvirus 4 strain B95-8
[30] = molecular target: HLA-A*68:02; experiment: IEDB peptide-MHC binding, purified MHC/direct/fluorescence; filed as Kd, often an IC50 or EC50 that approximates it; ≥ and ≤ were set here for values at or beyond the usual limits of such assays
[31] = molecular target: HLA-B*08:03; experiment: as above
[32] = molecular target: HLA-B*15:02; experiment: as above
[33] = molecular target: HLA-A*02:01; experiment: IEDB peptide-MHC binding, purified MHC/competitive/fluorescence; filed as Kd, often an IC50 or EC50 that approximates it; ≥ and ≤ were set here for values at or beyond the usual limits of such assays; settings: source organism: Giardia lamblia ATCC 50803
[34] = molecular target: HLA-A*02:03; experiment: as above
[35] = molecular target: HLA-A*30:01; experiment: as above
[36] = molecular target: HLA-B*08:01; experiment: as above
[37] = molecular target: HLA-B*15:09; experiment: as above; settings: source organism: Giardia lamblia ATCC 50803
[38] = molecular target: HLA-B*15:09; experiment: IEDB peptide-MHC binding, purified MHC/direct/fluorescence; filed as Kd, often an IC50 or EC50 that approximates it; ≥ and ≤ were set here for values at or beyond the usual limits of such assays; settings: source organism: Vibrio vulnificus CMCP6
[39] = molecular target: HLA-A*32:07; experiment: IEDB peptide-MHC binding, purified MHC/competitive/fluorescence; filed as Kd, often an IC50 or EC50 that approximates it; ≥ and ≤ were set here for values at or beyond the usual limits of such assays; settings: source organism: Vibrio vulnificus YJ016
[40] = molecular target: HLA-B*15:42; experiment: as above; settings: source organism: Vibrio vulnificus YJ016
[41] = molecular target: HLA-B*27:20; experiment: as above; settings: source organism: Vibrio vulnificus YJ016
[42] = molecular target: HLA-B*39:01; experiment: as above; settings: source organism: Vibrio vulnificus YJ016
[43] = molecular target: HLA-B*40:13; experiment: as above; settings: source organism: Vibrio vulnificus YJ016
[44] = molecular target: HLA-B*45:06; experiment: as above; settings: source organism: Vibrio vulnificus YJ016
[45] = molecular target: HLA-B*83:01; experiment: as above; settings: source organism: Vibrio vulnificus YJ016
[46] = source organism: Burkholderia mallei
[47] = source organism: Giardia lamblia ATCC 50803
[48] = source organism: Vibrio vulnificus
[49] = source organism: Vibrio vulnificus CMCP6
[50] = source organism: Vibrio vulnificus YJ016

Sequence: AVAVARVAA
- Kd [1, 46]: ≥ 20 µM
- Kd [2, 46]: ≥ 20 µM
- Kd [3, 46]: ≥ 20 µM
- Kd [4, 46]: ≥ 20 µM
- Kd ([5]; source organism: Burkholderia mallei ATCC 23344): ≥ 20 µM
- Kd [6, 46]: ≥ 20 µM
- Kd [7, 46]: ≥ 20 µM
- Kd [8, 46]: 0.217 µM
- Kd [9]: ≥ 20 µM
- Kd [10, 46]: 4.21 µM
- Kd [11, 46]: ≥ 20 µM
- Kd [12]: ≥ 20 µM
- Kd [13, 46]: ≥ 20 µM
- Kd [14]: ≥ 20 µM
- Kd [15]: ≥ 20 µM
- Kd [16]: ≥ 20 µM
- Kd [17, 46]: ≥ 20 µM
- Kd [18, 46]: ≥ 20 µM
- Kd [19]: ≥ 20 µM
- Kd [20, 46]: ≥ 20 µM
- Kd [21, 46]: ≥ 20 µM

Sequence: FIKDGSSTY
- Kd [22]: 0.0039 µM
- Kd [23]: 0.0167 µM
- Kd [24]: ≥ 78.1 µM
- Kd [25]: ≥ 62.7 µM
- Kd [26]: 0.516 µM
- Kd [27]: ≥ 61.3 µM
- Kd [28]: ≥ 39.8 µM

Sequence: LSIFDTSLF
- IC50 [29]: 5 µM

Sequence: QLKQRDALF
- Kd [1, 47]: ≥ 20 µM
- Kd [4, 47]: ≥ 20 µM
- Kd [5, 47]: ≥ 20 µM
- Kd [6, 47]: ≥ 20 µM
- Kd [30, 47]: ≥ 20 µM
- Kd [7, 47]: ≥ 20 µM
- Kd [8, 47]: ≥ 20 µM
- Kd [31, 47]: 0.17 µM
- Kd [10, 47]: 0.027 µM
- Kd [32, 47]: 0.029 µM
- Kd [11, 47]: 0.0657 µM
- Kd [13, 47]: ≥ 20 µM
- Kd [17, 47]: ≥ 20 µM
- Kd [18, 47]: ≥ 20 µM
- Kd [20, 47]: 1.46 µM
- Kd [21, 47]: ≥ 20 µM
- Kd [33]: ≥ 20 µM
- Kd [34, 47]: ≥ 20 µM
- Kd [35, 47]: ≥ 20 µM
- Kd [36, 47]: 0.135 µM
- Kd [37]: ≥ 20 µM

Sequence: YQRALHTSI
- Kd [1, 48]: ≥ 20 µM
- Kd [2, 48]: ≥ 20 µM
- Kd [3, 48]: ≥ 20 µM
- Kd [4, 48]: ≥ 20 µM
- Kd [5, 49]: ≥ 20 µM
- Kd [6, 48]: ≥ 20 µM
- Kd [30, 48]: ≥ 20 µM
- Kd [7, 48]: ≥ 20 µM
- Kd [8, 48]: 7.06 µM
- Kd [31, 49]: 0.055 µM
- Kd [10, 48]: 0.0962 µM
- Kd [32, 49]: 0.306 µM
- Kd [38]: ≥ 20 µM
- Kd [11, 48]: 0.13 µM
- Kd [13, 48]: 2.05 µM
- Kd [17, 48]: ≥ 20 µM
- Kd [18, 48]: 0.0586 µM
- Kd [20, 48]: ≥ 20 µM
- Kd [21, 48]: ≥ 20 µM
- Kd [34, 50]: 0.0021 µM
- Kd [35, 50]: 1.12 µM
- Kd [39]: 0.454 µM
- Kd [36, 50]: 0.292 µM
- Kd [40]: ≥ 20 µM
- Kd [41]: 0.0002 µM
- Kd [42]: 0.395 µM
- Kd [43]: 0.0608 µM
- Kd [44]: ≥ 5 µM
- Kd [45]: ≥ 5 µM
